test: soluble on expression in E. coli; label from the status in PepcDB or PDB records

Q: Which “soluble on expression in E. coli” value does the source give for “MQFYNRQKELKLMELLDQGKPSFFVITGKRRVGKTELIKQFTRNRKALYLFVDSNKSINILMDEFDRLLKEKLDLPDYIKVDEPENFLKFITSYDRDLVIAIDEFQRFQKVYPSFITQLQRYWDMKPDNCRIFLIVSGSSIGMIRKIFIEEQAPLFKRADNILTIKPFTVLETFEMLDGMGIKNPEEKLNLYFLFGGTVYYYRLFEKYQCTGFDDALEKLIFSEFAPLKNEVREILIEEFGKEHSTYYEIISAISQGRCSMSEISDMTHVSSSSLSPYFYDLIDLLGVVEHRIPVMDNPEKSKRGRYFLKDNFFRFYGRFIYPMYSRYMAGNYSPMLEKVRKEWQSYTGKIFEDIVHELLVEKMISDYPELGSWWNRKGDEIDILGVDHRGRKSLVIEVKNKELAENEAREILELTLDKTKLVKGISGQKLKVGIVAQKVKGRKNLEDDGFLVWELEELIPLEHHHHHH” here?
A: Its value is “not soluble”.

Q: Which “soluble on expression in E. coli” value does the source give for “MAHHHHHHMGELFSIKNLFICSNERSVEELRTAMEGLLKKERAEGAGGGEKEAKEETHPGGKKYEMIKDYLDANKNNVLHFAIYGNNMNNVKFIIENTNLINSINSEEQNGLIISVLNRNTQISKYLIEQNIDYNQKDKHKANALLYSLITQNYEIFNLLMEKKNIDINVNSFEKGNLLSVSIFERNIHVLKKLFNKFICPFVEGSVYPHPLLYITYSSDNELLFLYLTYCMYYCTKDDALYKINTANFDHSREEIYVDLDHRQVICSIWDNSTYDLSAFKDVLNMTDEDGTPLCSTCVNNGNSLGKNIFDYFSAPS” here?
A: The value was “not soluble”.

Q: For “VIALLAPGQGSQTEGMLSPWLQLPGAADQIAAWSKAADLDLARLGTTASTEEITDTAVAQPLIVAATLLAHQELARRCVLAGKDVIVAGHSVGEIAAYAIAGVIAADDAVALAATRGAEMAKACATEPTGMSAVLGGDETEVLSRLEQLDLVPANRNAAGQIVAAGRLTALEKLAEDPPAKARVRALGVAGAFHTEFMAPALDGFAAAAANIATADPTATLLSNRDGKPVTSAAAAMDTLVSQLTQPVRWDLCTATLREHTVTAIVEFPPAGTLSGIAKRELRGVPARAVKSPADLDELANL”, which “soluble on expression in E. coli” value is on record?
A: The value was “not soluble”.

Q: With “MSLDEGLLNKVKERGTLLVGLEGTYPPFSFQGDDGKLTGFEVEFAQQLAKHLGVEASLKPTKWDGMLASLDSKRIDVVINQVTISDERKKKYDFSTPYTISGIQALVKKGNEGTIKTADDLKGKKVGVGLGTNYEEWLRQNVQGVDVRTYDDDPTKYQDLRVGRIDAILVDRLAALDLVKKTNDTLAVTGEAFSRQESGVALRKGNEDLLKAVNDAIAEMQKDGTLQALSEKWFGADVTEGHHHHHH” as the sequence, how does the “soluble on expression in E. coli” value read?
A: The value was “soluble”.

Q: Which “soluble on expression in E. coli” value does the source give for “MSDTVVASAAVQAPAKTVKSPKAAKTTKVPKAKKPVAHPPYINMVTAAINGLKERKGSSKIAILKYITKNYNVGDQIIKINARLRDTLNKGVVSKALVQSVGTGASGRFRVTEKKAAAAKKPVAKKAATGEKKAKKPVAQKAATGEKKAKKTTATKTKKTADKVKKVKSPKKIAKPTAKKVAKSPAKKSAPKKAAAAKPAKKAVAPKT” here?
A: The value was “soluble”.

Q: Which “soluble on expression in E. coli” value does the source give for “MMVWTPVNNKMFETFSYLPPLTDEQIAAQVDYIVANGWIPCLEFAEADKAYVSNESAIRFGSVSCLYYDNRYWTMWKLPMFGCRDPMQVLREIVACTKAFPDAYVRLVAFDNQKQVQIMGFLVQRPKTARDFQPANKRSV” here?
A: Its value is “soluble”.

Q: For “MGSDKIHHHHHHMKNNNPPALGQKENAKHGEVFFPVQKYITRLAADYPVITTHWHDEAELTLITKGSCTYQIDLLEYEAKEGDIIFIPPLLLHSISIRDCDEFYSETYVFHINFLGGNNTDICSSRYLTPLINHEFAMPYLIAPKHPAYSSLCKCFMRITNLYSRQEFAYELALKAFLLQAIFLLLQYSEKNADFGVNTSSDKLKNVLDYIDVHYAESIQVAELAGLCYFSEYHFMRFFKKHMNMTCVQYINNVRLEKSVEQFERGNTSILDVSLSVGFHNLSYFHRAFKKRYHMTPLSFIKSLE”, which “soluble on expression in E. coli” value is on record?
A: The value was “not soluble”.

Q: For “MNYPMIAGRVFGTPLLVDPVKGAAFLAGLGPRLVNGALELRGLEELAPDRVAEAGRIAPRASVLLDDAGDARREAGRPLYLVEGGVAVIEVTGTLVHRGGWIGQSSGTTSYEGLMAQISAAVADPSVRGIALEIDSYGGEVAGLFDLADAIRAARAVKPVRAFVAEAALSAAYAIASQAERIVLPRTGAVGSIGVLLVHADFSQAMADRGVAVTLIHAGRHKVDGNPYEALPEGVRADLQARVEASRALFAETVAAGRGARLSRQQALATEAQVLDGAAAVAAGLADEVSDLRRAFAAFRAELFDPHLTSPRAGTPAAAKETPTMTDETTTGAARGTAAEGSAPPMETAEGSGGGAPAANVAVAEAAELIEIGQQAARLGLAVDVADAMRRGLSAAALRRTVLDGLAARGDGADLVAHAPTAAAGPKESPLLAAARRTAEAQAASRRA”, which “soluble on expression in E. coli” value is on record?
A: Its value is “not soluble”.

Q: For “MADGEAVISTVNNVEEVHGQLFEVAPRYVNLSYIGEGAYGMVASALDTITRDRVAIKKISPFEHQTFCQRTLREIKILNRFKHENIINIQEIIRSETVDSLKDIYIVQCLMETDLYKLLKTQKLSNDHVCYFLYQILRGLKYIHSANVLHRDLKPSNLLLNTTCDLKICDFGLARVTDPQTDHTGFLTEYVATRWYRAPEIMLNSKGYTKSIDVWSVGCILAEMLSNRPLFPGKHYLDQLNLILAVVGSPSNADLQCIINDKARSYLISLPHKPKQPWARLYPGADPRALDLLDKMLTFNPHNRIDIEQALAHPYLEQYYDPGDEPVCEEPFTLEMEFDDLPKEKLKELIWEEAEAHHRRMEAEAAARNNGGQNPV”, which “soluble on expression in E. coli” value is on record?
A: Its value is “not soluble”.

Q: Which “soluble on expression in E. coli” value does the source give for “MGSDKIHHHHHHMKPWQGISEFAAVAEQQSFTAAARQLRLSVAQVSRNIAALEHRLQMQLLYRSTRSVSLTEEGKLYLPHCQHLVASLRDADQAIQQRTQQPQGLIRITAPVYYGERFIAPLLNDFLHIYPECRLDFQLTNEQVDLIEGSYDVAIRLGQLGNPRLRARKLGSRRHFVVGSPAYFEEFGRPQDINALDAHRCFTGTVRQWRFQVEGKLETVRPESYLHCNNGLALRDAAMKGLGLAMLPDYYVTDSLANGQLEEVLADYRQPDDGIWALYPENRQVIPKVRVLLDYLSGNLSGNLSGKFNTGEIEN” here?
A: Its value is “not soluble”.

Q: With “GMNIEKTRFCINRKIAPGLSIEAFFRLVKRLEFNKVELRNDMPSGSVTDDLNYNQVRNLAEKYGLEIVTINAVYPFNQLTEEVVKKTEGLLRDAQGVGARALVLCPLNDGTIVPPEVTVEAIKRLSDLFARYDIQGLVEPLGFRVSSLRSAVWAQQLIREAGSPFKVLLDTFHHHLYEEAEKEFASRIDISAIGLVHLSGVEDTRPTEALADEQRIMLSEKDVMQNYQQVQRLENMGYRGIYAFEPFSSQLASWSEAEIEEQINRSVSLLLQ” as the sequence, how does the “soluble on expression in E. coli” value read?
A: Its value is “soluble”.

Q: Which “soluble on expression in E. coli” value does the source give for “MSLNSIQHIRKAEIHVHLEATIGPDLCRKFAKRNKVTLTDDIFGSQYAYAWDDFYDFIKKYDLVTSVIHTPEDYRELTYSYLKECAKNNVLYVEAMISSTHAKLKGMSYHSFLEGVAEGSKQAEDEFGIISKYIMNGIRHLGPESVQKTAEEVLEFPHKDLVGFGLAGDELHFPPKLFTKTFDMLKEANFPITVHAGEWDGPENIRHAINLLHPTRLGHGVRSIEDPDLVKEIIDKDIILETCPTSNIATKIYEDYKSHPVKTLFDQGVKVTVNSDDPPFFNATIQGEYKVMEDLGLNEKELTSLTHNAIKYSFCDEENKNELLAKLNEGHHHHHH” here?
A: The value was “soluble”.

Q: Which “soluble on expression in E. coli” value does the source give for “MGSDKIHHHHHHMKADLHVHTCLSPCADLLMIPPVVERASGDVQILGIVDHNSAKNVPAFLKMKKLVVPGIEIQTVEDVHVLGFFSDIESALKVTKIVYEHLPSVKHDHEKMGYQLFVDEKGNYTGYEDVPLGFPSDLTLSQAVELIRSFGGIPVYAHVEKRFGVLYQLGFFPDLEIPVAEVVSREGKENAQKKNLRVIVTSDAHFPSDIGRRYIDISGAPNSPEEVLKKILNSEYTLGGVLNW” here?
A: Its value is “not soluble”.

Q: Which “soluble on expression in E. coli” value does the source give for “MYLQDRSPYMENSGSSNDRNSGKTEYQLTLIGALKKEIEIARRLDPEKLAAEIKKTGFSCQNCGKCCKRAFGDNRVVLTPQEIEKIQKYTDLSKLEVAGPLIPDISCPEEAGEGEEDRVAENSSIMPEIDEKKTSEPFRTPELLKEDIDPDGNIHAYGWMLRRKRNGDCVFLEKDTNRCRIYPVRPMLCSTYPFYIEGLKLYTCECEGLGVHISAEESRKLAGSLLSRYVSELEDTLAMYEKYEDFERTEKGHEIAKNNLEKGTCIYIVHDSRGITKIIDLEHHHHHH” here?
A: The value was “soluble”.

Q: For “MAHHHHHHMTGSNGNDEPFKREMRTVKVPHHRFPALKKVWMDVYTPIVEQCKLEIRMNLRGRSVELRTCPATVEAAGNEGSKALLQKAEDFVKAVVAGFDVKDAVALLRMDDVYIEGFEVKDVRANLQGDNLSRCIGRMSGSHGKTKHTIENVTRTRIVIADTHICIMGTTQNIRVARDALCDLIRGSPATKVYTRVRAVMNRVNDTF”, which “soluble on expression in E. coli” value is on record?
A: Its value is “soluble”.

Q: Which “soluble on expression in E. coli” value does the source give for “MYIRINNGVTECNIRLVGTAHVSDDSITEVKNAIVETDPELVAIELDKDRFVAMFQNKKNDVDLKSVIKQGKVGIYIVHSILANFQKNIGEQFGIKPGSEMKKATDLAIQYQKPISLIDRPINITLSRTVNKMTFKEKFDFVIGLLTEQNVELDEKAINEMVSNADDLILLLKDISPSIYETLVNERDKYMAKNLFEASKGKENIVAVVGAGHVPGIKNYLKKMESGEDIDLKSLM” here?
A: The value was “not soluble”.

Q: With “MAALFQEASSCPVCSDYLEKPMSLECGCTVCLKCINSLQKEPHGEDLLCCCCSMVSQRNKIRPNRQLERLVSHIKELEPKMKKILQMNPRMRKFQVDMTLDADTANNFLLISDDLRSVRSGLITQNRQDLAERFDVSVCILGSPRFTCGRHYWEVDVGTSTEWDLGVCRESVHCKGKIQLTTELGFWTVSLRDGSRLSASTVPLTFLLVDRKLQRVGIFLDMGMQNVSFFDAESGSHVYTFRSVSAEEPLRPFLAPSIPPNGDQGVLSICPLMNSGTTDAPVRPGEAK” as the sequence, how does the “soluble on expression in E. coli” value read?
A: Its value is “soluble”.

Q: With “GPGSMEDYKAKGNDAFKAKRYQEAIDWYTKAIELDPNGEASGALYSNRAGSWQNLNNFEKAAADSEQCIRLRPDWLKGYFRLGVAMESMVKYDEAQKAFQKALQLSPGNEEGWTSCTPLILKFASAYEKTKSRSARPLKKPSNLATPS” as the sequence, how does the “soluble on expression in E. coli” value read?
A: The value was “soluble”.

Q: Which “soluble on expression in E. coli” value does the source give for “MKPYLMGNNPCGADATLFAFAASLLSPVFETPIRAAAESHPNLIAYMARMRTRYYPDFQGSGVFAPALEHHHHHH” here?
A: The value was “not soluble”.

Q: Which “soluble on expression in E. coli” value does the source give for “EGLDYLTAPNPPSIREELCTASHDTITVHWISDDEFSISSYELQYTIFTGQANFISLYNSVDSWMIVPNIKQNHYTVHGLQSGTRYIFIVKAINQAGSRNSEPTRLKTNSQPFK” here?
A: The value was “soluble”.

Q: Which “soluble on expression in E. coli” value does the source give for “MTAALPDLSFHPAWHAQLELAYARAGDATRPVTRRHAGPLRVQKHLYAEGPEVCQHILVHPPGGIAGGDSLAFDVRLGERAWAQLTSPGAAKWYRAACPARQTLEIHLEPGATLEWLPQESIVFAGAQAELETRIQLRGDARLFYWDMVALGRPASGERFASGHFVAALDIRRDDRLLWHERQRIDGGDRLLDSPIGLAGHPVLATLVASGEIDTDLLQRCRALPCAGRGNLSQLPGGLLVARCLADEALHARAWLIELWRLLRPALLGREAVPPRIWSTLEHHHHHH” here?
A: The value was “not soluble”.

Q: Which “soluble on expression in E. coli” value does the source give for “IFIGNLDPEIDEKLLYDTFSAFGVILQTPKIMRDPDTGNSKGYAFINFASFDASDAAIEAMNGQYLCNRPITVSYAFKKDSKG” here?
A: Its value is “soluble”.

Q: With “GPGSDQLKQSAFLVRNDEKVAALIVLLKRVLHVGEAAANSAQALIFSESKFHVEFLQMILTHYSISTSAVHGQMDQEARRLAVRSFAKRETSVMVVTDVAARGLDLPLLDNVVNFSFPFNPKLFVHRVGRVARAGRSGTAYSIMTFEDFPYYVDLMQFIGRPLQSAPVPGDLLFTPDDGCYGRLPEEDIQLELDFLKRLH” as the sequence, how does the “soluble on expression in E. coli” value read?
A: The value was “not soluble”.

Q: Which “soluble on expression in E. coli” value does the source give for “EDATPETVEYRQLSAADLLADTHLLREVFGLLVLAHYRTEPSDLARLLDAPNLTVRALTHEGHVVAVALLAQEGGLSASTRATMYEGGRVRGNMLPDVLSTQLRDEAAGVPVGQRVLRIATHAAVRSRGLGSKLLSEIRAEFADHVDWVGVSYGATPELVRFWADNGYNTVHLATSRNATSGEYSVVMLDP” here?
A: Its value is “not soluble”.
